Test results from patent US20110311517A1, “Antibodies and methods for treating estrogen receptor-associated diseases” (SHENOGEN PHARMA GROUP, LTD., priority 2009, published 2011).
Marks after values point to notes of the source that are not given here.

Assays:
implanted tumors = test: Comparison of anti-tumor activity of ScFv-7 with tamoxifen on tumor-bearing nude mice; format: in vivo, BALB/c-nu female nude mice; settings: after 18 days of drug administration
Method: BALB/c-nu female nude mice were divided into 3 groups, with 7 mice in each group.
Human anti-ERα36 ScFv-7 was administered at the dose of 0.1 mg/20 g body weight/day. The positive control tamoxifen was administered at the dose of 0.33 mg/20 g body weight/day. The negative control group was administered with human IgG.
The tumor-bearing nude mice were weighed, and the volumes of the implanted tumors were measured every 3-4 days. The relative tumor volumes and tumor growth inhibition rates were calculated using Equation 2 and Equation 4 respectively. Animals received drug administration for 18 days and were terminated 24 h later. The tumors were excised from the animals and weighed. The average tumor weights and tumor growth inhibitions were calculated using Equation 4.

ERα36 = biological target: T1, ERα36 (Homo sapiens, UniProt P03372); test: ELISA of re-natured ScFv binding to ERα36
T1 construct: made in house; host or cells: chemical synthesis (no expression host)
T1 sequence (P03372 284-310 isoform P03372-4 limits assumed): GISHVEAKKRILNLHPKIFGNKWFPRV
Method: Streptavidin-coated 96-well plates were washed twice with PBS. Biotinylated ERα36 (final concentration of 20 μg/ml) was added into each testing well. The plates were incubated for 2 h at room temperature and washed three times with PBST. Re-natured ScFv samples (100 μl, S14A1r1, S24A2r2, S33A2r1, S41A3r3, S53A1r1, S66A1r1 and S72A2r1) were added into the testing wells respectively. Each ScFv was diluted five times in five gradients, and two parallel wells were loaded with each ScFv at each gradient. The plates were incubated at 37° C. for 1 h. The plates were washed three times with PBST, followed by addition of 100 μl anti-His-6 mouse monoclonal antibody (1:2000 dilution) per well and 1 h incubation at 37° C. The plates were washed three times with PBST, followed by addition of 100 μl goat anti-mouse-HRP (1:2500 dilution) per well and 1 h incubation at 37° C. The plates were washed six times with PBST, followed by addition of 100 μl OPD to develop under the protection from light. The reactions were terminated by adding 50 μl 2M H2SO4 to each well, and data were collected by microplate reader at 490 nm.
One positive control and three negative controls were performed in parallel. The positive control used rabbit anti-ER multi-clonal antibody serum in replacement of the ScFv re-natured sample and goat-anti-rabbit-HRP in replacement of goat-anti-mouse HRP.

[1] = system: Human breast tumor BCAP-37; test: Tumor growth inhibition in BCAP-37 tumor-bearing nude mice; format: in vivo, BALB/c-nu nude mice
Text: 49 female BALB/c-nu nude mice (provided by department of laboratory animal science, Peking University Health Science Center) were used in the studies.
(§1) The tested animals were grouped into 7 groups with 7 nude mice in each group. The seven groups are the negative control group treated with human IgG antibody (purchased from Beijing Biosynthesis Biotechnology Co. Ltd.), the positive control group treated with herceptin (provided by Beijing Shenogen pharma group), the multi-clonal antibody test group treated with rabbit anti-ERα36 multi-clonal antibody (provided by Wang, Zhao-Yi group, Creighton University), and the monoclonal antibody test groups treated with human anti-ERα36 monoclonal ScFv1, ScFv3, ScFv4 and ScFv7 respectively.
(§2) The test groups were administered with the same dose of rabbit anti-ERα36 multi-clonal antibody, human anti-ERα36 monoclonal ScFv1, ScFv3, ScFv4 and ScFv7 respectively (5 mg/kg, 100 μg/dose). The positive control group was administered with 5 mg/kg herceptin (100 μg/dose,), and the negative control group was administered with 5 mg/kg IgG antibody (100 μg/dose).
(§3) Human breast tumor BCAP-37 (estrogen receptor positive, provided by department of pharmacology, Institute of Materia Medica, Chinese Academy of Medical Sciences) was implanted subcutaneously into the armpit of the right forelimb of each tested nude mouse. Diethylstilbestrol was administered by gavage with the dose of 7 μg/day for 9 consecutive days after the implantation. On day 10, the mice were grouped into 7 groups and administered with the corresponding drug via intravenous injection, at a dosing interval of 3-4 days, for 6 consecutive doses. Every 3-4 days, the tumor-bearing mice were weighed and their tumor sizes were measured. Parameters were calculated using the following equations:
Volume of Tumor in animals of each group (VT): Vt=½×a×b^2, (Equation 1),
wherein a and b represent the length and width of the tumor, respectively;
wherein V0 is the volume of tumor before drug administration at the time of grouping, Vt is the volume of tumor at each measurement; the calculation method of V0 is the same as that of Vt;
wherein TRTV is the arithmetic mean of RTV of the test groups, and CRTV is the arithmetic mean of RTV of the negative control group.
The tumor bearing mice in each group were terminated after 21 days of observations and drug administrations. The tumors were then excised from the animals, photographed and weighed on 1/10000 analytical balance. The average tumor weights and tumor growth inhibition rates were calculated:
All experimental data were shown in mean±standard deviation. Groups were compared using statistical t test.

[2] = Body weight and mortality of tumor-bearing nude mice during drug administration; format: in vivo, BALB/c-nu nude mice; settings: mean ± SD
Text: as §1, §2
as §3, with “equations: […]” for “equations:”

[3] = ScFv concentration 200.00 μg/ml
[4] = BCAP-37 nude mice, 5 mg/kg i.v. every 3-4 days, 6 doses, mean ± SD
[5] = BCAP-37 nude mice, 5 mg/kg i.v. every 3-4 days, Vt relative to V0, mean ± SD
[6] = 5 mg/kg i.v. every 3-4 days, 6 doses

B1: ScFv7: fully human anti-ERα36 single chain antibody, SEQ ID NO: 15 (protein)
scFv: QSVLTQPPSVSAAPGQKVTISCSGSSSNIGNNYVSWYQQLPGTAPKLLIYDNNKRPSGIPDRFSGSKSGTSATLGITGLQTGDEADYYCGTWDSSLSAGVFGGGTKLTVLGSGGSTITSYNVYYTKLSSSGTEVQLVQSGGGLVQPGRSLRLSCAASGFTFDDYAMHWVRQAPGKGLEWVSGISWNSGSIGYADSVKGRFTISRDNAKNSLYLQMNSLRAEDTALYYCAKEGDSSGWSPDYWGQGTLVTVSSAS
modifications: scFv7
tumor sizes at pathological examination (in words) (implanted tumors): significantly smaller than those of the negative group
tumor volume (VT), relative tumor volume (RVT) and relative tumor growth rate (T/C %) versus negative control group (implanted tumors): significantly lower
tumor inhibition rates (implanted tumors; ScFv-7 0.1 mg/20 g body weight/day, tamoxifen 0.33 mg/20 g body weight/day): around 60%
average tumor weights compared with negative group (implanted tumors; p-values below 0.01): significant difference
OD490 Well1 (ERα36; ScFv concentration 0.32 μg/ml): 0.122
OD490 Well2 (ERα36; ScFv concentration 0.32 μg/ml): 0.111
OD490 Well1 (ERα36; ScFv concentration 1.60 μg/ml): 0.146
OD490 Well2 (ERα36; ScFv concentration 1.60 μg/ml): 0.155
OD490 Well1 (ERα36; ScFv concentration 8.00 μg/ml): 0.171
OD490 Well2 (ERα36; ScFv concentration 8.00 μg/ml): 0.155
OD490 Well1 (ERα36; ScFv concentration 40.00 μg/ml): 0.294
OD490 Well2 (ERα36; ScFv concentration 40.00 μg/ml): 0.311
OD490 Well1 (ERα36; [3]): 0.690
OD490 Well2 (ERα36; [3]): 0.740
Tumor volumes, Day 4 after drug administration [1, 4]: 186.11 ± 71.13^a mm^3
Tumor volumes, Day 7 after drug administration [1, 4]: 308.85 ± 117.52^b mm^3
Tumor volumes, Day 11 after drug administration [1, 4]: 1521.45 ± 366.24^b mm^3
Tumor volumes, Day 14 after drug administration [1, 4]: 2136.49 ± 479.95^b mm^3
Tumor volumes, Day 18 after drug administration [1, 4]: 2944.61 ± 526.75^b mm^3
Tumor volumes, Day 21 after drug administration [1, 4]: 3358.43 ± 445.13^b mm^3
relative tumor volume (RTV), Day 4 [1, 5]: 3.81 ± 1.54^b
relative tumor volume (RTV), Day 7 [1, 5]: 6.45 ± 2.86^b
relative tumor volume (RTV), Day 11 [1, 5]: 31.64 ± 10.24^b
relative tumor volume (RTV), Day 14 [1, 5]: 44.48 ± 13.69^b
relative tumor volume (RTV), Day 18 [1, 5]: 61.54 ± 18.25^b
relative tumor volume (RTV), Day 21 [1, 5]: 70.27 ± 19.61^b
inhibition of tumor growth in tumor-bearing mice (in words) ([1]; BCAP-37 nude mice, 5 mg/kg i.v., 6 doses): strongest inhibitory activities
Tumor volumes, Before drug administration ([1]; baseline, BCAP-37 nude mice, 5 mg/kg i.v. every 3-4 days, 6 doses, mean ± SD): 50.62 ± 13.32 mm^3
tumor sizes at pathological examination (in words) ([1]; excised tumors after 21 days): the smallest among the mono-clonal antibody groups
Tumor weight ([1]; excised tumors after 21 days, BCAP-37 nude mice, 5 mg/kg i.v., 6 doses, mean ± SD): 2.860 ± 0.696 g
Tumor growth inhibition rate (%) ([1]; from average tumor weights after 21 days vs negative control, 5 mg/kg i.v., 6 doses): 57.97%
Body weights of tumor-bearing nude mice, Day 4 after drug administration [2, 6]: 20.02 ± 0.51
Body weights of tumor-bearing nude mice, Day 7 after drug administration [2, 6]: 20.65 ± 0.24
Body weights of tumor-bearing nude mice, Day 11 after drug administration [2, 6]: 21.34 ± 0.51
Body weights of tumor-bearing nude mice, Day 14 after drug administration [2, 6]: 22.01 ± 0.52
Body weights of tumor-bearing nude mice, Day 18 after drug administration [2, 6]: 23.15 ± 0.58
Body weights of tumor-bearing nude mice, Day 21 after drug administration [2, 6]: 23.52 ± 0.47
body weight when grouped ([2]; baseline at the time of grouping): 19.67 ± 0.67
Body weights of tumor-bearing nude mice, Before drug administration ([2]; baseline, 5 mg/kg i.v. every 3-4 days, 6 doses): 19.67 ± 0.67
